The record followed here is publication PMC9937993, “Structures of the NDP-pyranose mutase belonging to glycosyltransferase family 75 reveal residues important for Mn^2+ coordination and substrate binding” (The Journal of Biological Chemistry, 2023).

This series deals with the molecule itself. In words: SEC; size exclusion chromatography of AtRGP2 WT and its F280D/L283D/Y287D mutant (Fig. S12A); column and buffer not given. For orientation: In gel filtration, larger molecules generally elute earlier.

B1: AtRGP2 wildtype, recombinant (enzyme)
chain: not shown
notes: AtRGP2, UniProtKB Q9LFW1; codon-optimized gene cloned into pET32a; Only the vector pET32a and the nickel-sepharose purification are stated; also called AtRGP2 WT; source: E. coli BL21-Gold (DE3), purified (nickel-sepharose, Superdex 200)
On to B1, for which the binding result is listed as “binds”.
